The results in this text go back to US20250051409A1 (NATIONAL INSTITUTE FOR BIOTECHNOLOGY IN THE NEGEV, published 2025).

In experiment [1] the target is T1, ATP synthase subunit 5A, inner mitochondria membrane protein (endogenous) (UniProt P25705 44-553, limits assumed).
T1 construct: also called ATPsyn5a; ATP5a
The experiment is described as follows: in situ proximity ligation assay.

For experiment [2], the target named is T2, citrate synthase (CS), located in the matrix (endogenous) (UniProt O75390 28-466).
T2 sequence (looked up): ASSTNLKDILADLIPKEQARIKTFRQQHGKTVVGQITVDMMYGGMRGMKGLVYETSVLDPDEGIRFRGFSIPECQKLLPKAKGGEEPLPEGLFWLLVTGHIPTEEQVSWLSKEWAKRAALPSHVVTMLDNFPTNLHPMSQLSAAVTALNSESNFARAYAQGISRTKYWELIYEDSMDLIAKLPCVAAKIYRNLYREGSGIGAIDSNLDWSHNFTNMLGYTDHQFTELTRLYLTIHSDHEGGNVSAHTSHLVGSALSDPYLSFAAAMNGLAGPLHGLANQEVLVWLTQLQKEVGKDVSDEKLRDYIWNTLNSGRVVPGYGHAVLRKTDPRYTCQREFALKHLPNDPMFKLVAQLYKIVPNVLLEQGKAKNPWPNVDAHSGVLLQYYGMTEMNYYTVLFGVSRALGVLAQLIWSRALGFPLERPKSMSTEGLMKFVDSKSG
The experiment is described as follows: in situ proximity ligation assay.

T1 sequence (P25705 44-553 limits assumed): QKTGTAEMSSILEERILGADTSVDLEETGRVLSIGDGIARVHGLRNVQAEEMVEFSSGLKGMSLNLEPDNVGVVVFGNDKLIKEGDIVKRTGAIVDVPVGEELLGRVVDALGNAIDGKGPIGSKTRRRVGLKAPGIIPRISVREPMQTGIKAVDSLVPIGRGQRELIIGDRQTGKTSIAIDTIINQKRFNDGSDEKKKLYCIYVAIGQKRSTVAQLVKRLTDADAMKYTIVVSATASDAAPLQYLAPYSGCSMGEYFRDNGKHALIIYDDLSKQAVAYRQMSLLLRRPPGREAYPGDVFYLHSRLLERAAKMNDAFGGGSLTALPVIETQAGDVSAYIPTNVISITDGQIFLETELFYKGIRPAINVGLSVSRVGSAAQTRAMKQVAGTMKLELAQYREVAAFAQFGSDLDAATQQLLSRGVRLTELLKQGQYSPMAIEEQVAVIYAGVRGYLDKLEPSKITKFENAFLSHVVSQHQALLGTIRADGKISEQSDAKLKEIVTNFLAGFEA

B1: SMAC/Diablo, endogenous, in A549 cells and A549 xenograft tumor sections (other, human, UniProt Q9NR28 56-239, looked up)
chain: AVPIAQKSEPHSLSSEALMRRAVSLVTDSTSTFLSQTTYALIEAITEYTKAVYTLTSLYRQYTSLLGKMNSEEEDEVWQVIIGARAEMTSKHQEYLKLETTWMTAVGLSEMAAEAAYQTGADQASITARNHIQLVKLQVEEVHQLSRKAETKLAEAQIEELRQKTQEEGEERAESEQEAYLRED
notes: Intracellular endogenous protein, detected with antibodies in the proximity ligation assay
Turning to B1, in experiment [1], the binding result is “no binding”.

B2: PSD, endogenous, in A549 cells (enzyme)
chain: MMCQSEARQGPELRAAKWLHFPQLALRRRLGQLSCMSRPALKLRSWPLTVLYYLLPLGALRPLSRVGWRPVSRVALYKSVPTRLLSRAWGRLNQVELPHWLRRPVYSLYIWTFGVNMKEAAVEDLHHYRNLSEFFRRKLKPQARPVCGLHSVISPSDGRILNFGQVKNCEVEQVKGVTYSLESFLGPRTCTEDLPFPPAASCDSFKNQLVTREGNELYHCVIYLAPGDYHCFHSPTDWTVSHRRHFPGSLMSVNPGMARWIKELFCHNERVVLTGDWKHGFFSLTAVGATNVGSIRIYFDRDLHTNSPRHSKGSYNDFSVVGSLTR
notes: Intracellular endogenous protein, detected with antibodies in the proximity ligation assay; also called phosphatidylserine decarboxylase
For the molecule B2, the binding result in experiment [2] is listed as “no binding”.
